# Tests used:
# [1] = test system: T1, unmodified H1.0 peptide
# T1 sequence: AKPVKASKPKKAKPVKPK
# [2] = test system: full length human H1.0 protein
# [3] = test system: T2, H1.0K180me2 peptide
# T2 sequence: AKPVKASKPKKAKPVKPK
Substance,"estimated methylation efficiency, LC-MS [1]","in vitro methylation with tritium-labeled methyl donor, gel autoradiography [1]","peptides dimethylated at K180, LC-MS spectral counts [1]",in vitro methylation assay with increasing amounts of G9A [2],"sites of methylation, LC-MS [2]","further methylated peptide H1.0K166me1K180me2, LC-MS [3]","further methylated peptide H1.0K174me1K180me3, LC-MS [3]","further methylated peptide H1.0K174me3K175me3K177me1K180me2, LC-MS [3]","peptides further methylated, LC-MS [3]"
G9A methyltransferase,an estimated methylation efficiency of about 99%,The appearance of a band at 4 kDa shows that The G9A methyltransferase capable of methylating H1.0 peptide,99.9% of all peptides,G9A is capable of dimethylating full length H1.0 at K180,"G9A methylates C-terminal lysine residues, including H1.0K180me2",1.27% of the total peptide in the reaction,1.06% of the total peptide in the reaction,0.35% of the total peptide in the reaction,only 2.64% of peptides are further methylated
GLP methyltransferase,,,96.6% of all peptides,,"GLP methylates a large number of lysine residues on the C-terminal tail of H1.0, lacking the specificity of G9A",,,,1.02% of peptides are further methylated
